Paper PMC11551741 (Nucleic Acids Research, 2024)
Where a chain is given by its changes, count along the chain named. Non-standard residues stand in square brackets, D forms with d. pS = N[C@@H](COP(=O)(O)O)C(=O)O

How the values were obtained:
SLF1 tBRCT, 6-208 = SLF1 tBRCT, 6-208 (UniProt Q9BQI6); assay: thermal melt (SYPRO Orange) of SLF1tBRCT
[1] = target: unmodified nucleosome core particle (H2A, H2B, H3.1, H4 and 147 bp Widom 601 DNA) (human) (UniProt P0C0S8); assay: native gel or EMSA; 10 nM nucleosome core particles with rising SLF1^ARD or SLF1^ARD_4A, room temperature, 20 mins; Diamond DNA stain
[2] = target: RAD18 peptide 437-452 (Homo sapiens) (UniProt Q9NS91); assay: ITC; conditions: cited from earlier work
SLF1 ARD = target: T1, SLF1 ARD (Homo sapiens, UniProt Q9BQI6 802-934); assay: EMSA; no shift; DNA EMSA: 40 mM Tris pH 7.5, 100 mM KCl, 0.2 mM DTT, 10% glycerol, 20 ug/ml BSA, 10 nM DNA, 4 C 30 min; NCP EMSA: 10 nM NCP, room temperature 20 min; FP: 20 mM; conditions: protein: recombinant; tags: none (His-tag cleaved by TEV); label: 5' 6-FAM on strand 1; blunt
T1 sequence: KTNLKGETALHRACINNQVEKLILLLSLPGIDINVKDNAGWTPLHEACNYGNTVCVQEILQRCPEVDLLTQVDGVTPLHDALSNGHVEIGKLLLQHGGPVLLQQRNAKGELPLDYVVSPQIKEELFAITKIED

BRCA1 tBRCT = BRCA1 tBRCT (UniProt P38398 1646-1859); assay: EMSA; no interaction observed; DNA EMSA: 40 mM Tris pH 7.5, 100 mM KCl, 0.2 mM DTT, 10% glycerol, 20 ug/ml BSA, 10 nM DNA, 4 C 30 min; NCP EMSA: 10 nM NCP, room temperature 20 min; FP: 20 mM; conditions: protein: recombinant; tags: N-terminal non-cleavable His-tag; label: 5' 6-FAM on strand 1; blunt
BRCA1 tBRCT, sequence (P38398 1646-1859): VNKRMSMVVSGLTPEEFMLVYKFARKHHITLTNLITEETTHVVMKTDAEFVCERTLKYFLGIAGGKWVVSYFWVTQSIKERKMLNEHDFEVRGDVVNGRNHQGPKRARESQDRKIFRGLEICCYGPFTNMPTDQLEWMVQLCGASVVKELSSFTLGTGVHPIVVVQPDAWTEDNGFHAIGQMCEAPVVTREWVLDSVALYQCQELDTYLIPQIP

SLF1 tBRCT [3] = target: T2, SLF1 tBRCT (Homo sapiens, UniProt Q9BQI6 6-208); assay: fluorescence polarization; 20 mM Tris pH 8.0, 150 mM NaCl, 5% glycerol, room temperature; DNA EMSA: 40 mM Tris pH 7.5, 100 mM KCl, 0.2 mM DTT, 10% glycerol, 20 ug/ml BSA, 10 nM DNA, 4 C 30 min; NCP EMSA: 10 nM NCP, room temperature 20 min; FP: 20 mM; conditions: protein: recombinant; tags: none (His-tag cleaved by TEV); label: 5' 6-FAM on strand 1; blunt
T2 sequence: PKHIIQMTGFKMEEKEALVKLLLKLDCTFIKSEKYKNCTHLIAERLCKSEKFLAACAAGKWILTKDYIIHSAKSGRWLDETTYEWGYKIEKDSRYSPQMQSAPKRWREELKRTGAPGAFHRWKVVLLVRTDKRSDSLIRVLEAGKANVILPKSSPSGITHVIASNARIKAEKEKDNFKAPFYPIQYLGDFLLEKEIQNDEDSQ

SLF1 tBRCT T13A = target: T3, SLF1 tBRCT T13A (Homo sapiens, UniProt Q9BQI6 6-208, T13A); assay: thermal melt; 30 uM DNA, 10 uM protein; DNA EMSA: 40 mM Tris pH 7.5, 100 mM KCl, 0.2 mM DTT, 10% glycerol, 20 ug/ml BSA, 10 nM DNA, 4 C 30 min; NCP EMSA: 10 nM NCP, room temperature 20 min; FP: 20 mM; conditions: protein: recombinant; tags: none (His-tag cleaved by TEV); blunt
T3 sequence: T2 sequence with T8A

SLF1 tBRCT K56A = target: T4, SLF1 tBRCT K56A (Homo sapiens, UniProt Q9BQI6 6-208, K56A); assay: as above; conditions: protein: recombinant; tags: none (His-tag cleaved by TEV); blunt
T4 sequence: T2 sequence with K51A

SLF1 tBRCT [4] = target: T2, SLF1 tBRCT; assay: as above; conditions: protein: recombinant; tags: none (His-tag cleaved by TEV); blunt
[5] = target: T5, SLF1^tBRCT (tandem BRCT domain of SLF1, residues 6-208) (human, UniProt Q9BQI6 6-208); assay: thermal melt (SYPRO Orange); 10 μM SLF1^tBRCT proteins with 200 μM RAD18 peptides; 25-95°C; Tm of SLF1^tBRCT; conditions: both partners purified
T5 construct: SLF1 (SMC5-SMC6 complex localization factor 1), human, tandem BRCT domain, residues 6-208; pHAT4 construct; also called wild-type SLF1^tBRCT; not shown: His-tag, N-terminal, cleaved
T5 sequence (looked up): T2 sequence

SLF1 tBRCT, 6-208, sequence (Q9BQI6 whole entry, looked up, tested part not stated): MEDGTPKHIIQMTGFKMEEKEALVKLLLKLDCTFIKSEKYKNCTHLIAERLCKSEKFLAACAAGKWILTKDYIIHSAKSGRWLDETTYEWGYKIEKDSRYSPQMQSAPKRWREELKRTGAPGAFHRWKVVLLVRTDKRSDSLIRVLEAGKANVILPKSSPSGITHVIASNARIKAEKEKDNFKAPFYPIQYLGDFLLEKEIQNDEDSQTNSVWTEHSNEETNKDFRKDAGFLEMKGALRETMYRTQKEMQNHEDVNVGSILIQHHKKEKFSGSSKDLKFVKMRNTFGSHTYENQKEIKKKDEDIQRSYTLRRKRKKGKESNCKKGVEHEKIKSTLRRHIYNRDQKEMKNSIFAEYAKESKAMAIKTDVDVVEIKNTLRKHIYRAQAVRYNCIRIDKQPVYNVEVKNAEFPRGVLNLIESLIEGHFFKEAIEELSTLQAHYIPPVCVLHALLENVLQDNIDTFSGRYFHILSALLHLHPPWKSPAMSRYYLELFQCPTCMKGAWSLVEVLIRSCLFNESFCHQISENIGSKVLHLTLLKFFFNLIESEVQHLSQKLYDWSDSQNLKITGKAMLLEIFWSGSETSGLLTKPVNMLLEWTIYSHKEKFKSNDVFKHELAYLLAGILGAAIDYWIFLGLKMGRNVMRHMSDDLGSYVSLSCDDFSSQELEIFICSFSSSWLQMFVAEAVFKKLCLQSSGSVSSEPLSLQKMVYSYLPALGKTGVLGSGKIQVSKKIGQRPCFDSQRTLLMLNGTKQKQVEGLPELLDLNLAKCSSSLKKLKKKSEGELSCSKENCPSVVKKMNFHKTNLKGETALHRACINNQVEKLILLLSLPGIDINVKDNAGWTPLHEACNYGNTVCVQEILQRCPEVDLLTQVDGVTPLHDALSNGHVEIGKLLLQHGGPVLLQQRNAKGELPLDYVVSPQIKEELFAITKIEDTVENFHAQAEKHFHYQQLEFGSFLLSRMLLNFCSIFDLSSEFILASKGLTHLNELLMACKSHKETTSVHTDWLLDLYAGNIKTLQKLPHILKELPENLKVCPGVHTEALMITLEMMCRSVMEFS

Molecule: RAD18 441-446 (from UniProt Q9NS91) pS442/pS444 peptide
- other: ΔTm vs SLF1tBRCT alone (SLF1 tBRCT, 6-208; reference: pS442 peptide, sites S444): stronger; reference 0.8
- other: ΔTm vs SLF1tBRCT alone (SLF1 tBRCT, 6-208; reference: pS444 peptide, sites S442): stronger; reference 0.4
- other: ΔTm vs SLF1tBRCT alone (SLF1 tBRCT, 6-208; reference: unphosphorylated peptide SSSSDI, sites S442,S444): 3.7 °C

Molecule: SLF1^ARD (ankyrin repeat domain of SLF1, residues 802-934), His-tag cleaved (from UniProt Q9BQI6 802-934) (domain or fragment)
- affinity [1]: 1 to 5 µM

Molecule: SLF1 tBRCT (from UniProt Q9BQI6)
- Kd [2]: 12 nM

B1: 50 bp DNA, 6-FAM (dsDNA)
DNA 1: TAAATGCCAATGCTGCTGATACGTACTCGGACTGATTCGGAACTGTAACG
DNA 2: CGTTACAGTTCCGAATCAGTCCGAGTACGTATCAGCAGCATTGGCATTTA
- binding result (SLF1 ARD): no binding
- binding result (BRCA1 tBRCT): no binding
- Kd (SLF1 tBRCT [3]): 430 nM

B2: 50 bp DNA, unlabelled (dsDNA)
DNA 1: B1 DNA 1
DNA 2: B1 DNA 2
- binding signal (SLF1 tBRCT T13A): 6.9 C (delta Tm)
- binding signal (SLF1 tBRCT K56A): 6.4 C (delta Tm)
- binding signal (SLF1 tBRCT [4]): 7.1 C (delta Tm)

B3: RAD18(442p,444p)^peptide (S(pS)S(pS)DI) (peptide)
peptide: Ac-S[pS]S[pS]DI-NH2
SMILES: CC[C@H](C)[C@H](NC(=O)[C@H](CC(=O)O)NC(=O)[C@H](COP(=O)(O)O)NC(=O)[C@H](CO)NC(=O)[C@H](COP(=O)(O)O)NC(=O)[C@H](CO)NC(C)=O)C(N)=O
notes: RAD18, human, residues S441 to I446; also called double phosphorylated RAD18 peptide; double-phosphorylated hexapeptide; source: synthetic peptide (Biomatik)
- ΔTm [5]: 3.7 °C
